Patent US20100009896A1

Legend:
[1] = biological target: Carbonic anhydrase II (bCAII), from bovine erythrocytes (bovine) (UniProt P00921); test: SPR KD of the biligand against fluorescence polarization KD of the anchor ligand
[2] = biological target: Carbonic anhydrase II (bCAII), from bovine erythrocytes (bovine) (UniProt P00921); test: SPR Biacore T100; bCAII immobilised on CM5, biligand as analyte 2 nM-5 µM, 1:1 fit
[3] = biological target: Carbonic anhydrase II (bCAII), from bovine erythrocytes (bovine) (UniProt P00921); test: SPR Biacore T100; bCAII immobilised on CM5
[4] = biological target: Carbonic anhydrase II (bCAII), from bovine erythrocytes (bovine) (UniProt P00921); test: SPR KD of the biligands against fluorescence polarization KD of the anchor ligand
[5] = biological target: human carbonic anhydrase II (hCAII) (human) (UniProt P00918); test: dot blot; antigen spotted on nitrocellulose, biotinylated biligand anchor in 0.1% serum, streptavidin-HRP
[6] = biological target: Carbonic anhydrase II (bCAII), from bovine erythrocytes (bovine) (UniProt P00921); test: as above
[7] = biological target: Carbonic anhydrase II (bCAII), from bovine erythrocytes (bovine) (UniProt P00921); test: SPR Biacore T100; bCAII immobilised on CM5, branched biligand as analyte 0-1656 nM
[8] = biological target: Carbonic anhydrase II (bCAII), from bovine erythrocytes (bovine) (UniProt P00921); test: fluorescence polarization; 6 µM FITC-peptide titrated with bCAII 0.2-800 µM in PBS + 3% DMSO
[9] = biological target: Carbonic anhydrase II (bCAII), from bovine erythrocytes (bovine) (UniProt P00921); test: SPR Biacore T100; bCAII immobilised on CM5, triligand as analyte 0.1-162 nM, 1:1 fit
[10] = biological target: human carbonic anhydrase II (hCAII) (human) (UniProt P00918); test: SPR Biacore T100; hCAII immobilised on CM5, triligand as analyte 0.1-162 nM, 1:1 fit
[11] = biological target: human carbonic anhydrase II (hCAII) (human) (UniProt P00918); test: SPR KD of the triligand against SPR KD of the biligand
[12] = biological target: Carbonic anhydrase II (bCAII), from bovine erythrocytes (bovine) (UniProt P00921); test: as above
[13] = biological target: Carbonic anhydrase II (bCAII), from bovine erythrocytes (bovine) (UniProt P00921); test: SPR

Carbonic anhydrase II (bCAII), from bovine erythrocytes (bovine), sequence (P00921 2-260 limits assumed): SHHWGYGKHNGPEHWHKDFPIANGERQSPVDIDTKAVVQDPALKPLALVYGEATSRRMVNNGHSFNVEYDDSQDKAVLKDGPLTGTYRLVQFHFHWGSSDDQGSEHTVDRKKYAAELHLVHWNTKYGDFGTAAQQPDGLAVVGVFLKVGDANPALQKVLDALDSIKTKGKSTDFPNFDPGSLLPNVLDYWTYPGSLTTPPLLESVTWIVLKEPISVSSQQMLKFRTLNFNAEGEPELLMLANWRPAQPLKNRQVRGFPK

## biligand kwlwGl-Tz1-kfwlkl (peptide)
[1]
  fold improvement of dissociation constant over anchor ligand lklwfk-(D-Pra): 150 fold
[2]
  Kd: 3000 nM
[3]
  Kd: 1000 nM

## biligand lklwfk-Tz1-kiwiG (peptide)
[2]
  Kd: 11000 nM
[4]
  fold affinity enhancement over anchor ligand: 150 fold
[3]
  Kd: 1000 nM

## biotinylated biligand anchor Biotin-(EG)5-(D-Pra)-kwlwGl-Tz1-kfwlkl (FIG. 14) (peptide)
[5]
  fold reduction of dot blot sensitivity against the triligand: 10 fold
[6]
  fold reduction of dot blot sensitivity against the triligand: 10 fold

## branched biligand capture agent vkw(Tz1)fw-kfwlkl (peptide)
[7]
  Kd: 500 nM

## fluoresceinated anchor ligand lklwfk-(D-Pra) (peptide)
[8]
  Kd: 500000 nM

## triligand rfviln-Tz2-kwlwGl-Tz1-kfwlkl (peptide)
[9]
  Kd: 64 nM
[10]
  Kd: 45 nM
[11]
  fold affinity enhancement over biligand: 50 fold
[12]
  fold affinity enhancement over biligand: 50 fold
[13]
  Kd: 60 nM
